Substitutions are numbered along the chain they refer to. In names and notes the source's numbering stands.
T1: cynoFcγRIIb (Macaca fascicularis, UniProt A0A140HDP4)
T1 construct: extracellular region, C-terminal His- and GST-tag; also called cynomolgus monkey FcγRIIb
T1 sequence (receptor extracellular region): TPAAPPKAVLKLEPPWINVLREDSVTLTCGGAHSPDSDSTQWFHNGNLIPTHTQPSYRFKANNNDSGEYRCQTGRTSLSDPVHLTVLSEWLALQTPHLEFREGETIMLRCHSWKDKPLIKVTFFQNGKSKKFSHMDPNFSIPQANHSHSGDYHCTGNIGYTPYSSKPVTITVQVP

T2: mFcγRIIb (Mus musculus, UniProt P08101)
T2 construct: extracellular region, C-terminal His- and GST-tag; also called mouse FcγRII
T2 sequence (receptor extracellular region, looked up): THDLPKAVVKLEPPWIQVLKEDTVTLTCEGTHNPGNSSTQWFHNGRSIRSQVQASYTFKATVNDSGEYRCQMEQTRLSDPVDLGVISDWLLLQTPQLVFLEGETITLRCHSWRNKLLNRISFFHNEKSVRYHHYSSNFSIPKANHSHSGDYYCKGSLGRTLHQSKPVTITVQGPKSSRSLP

T3: mFcγRIV
T3 construct: also called mouse FcγRIV; not shown: C-terminal His and GST tags (named only on our card)
T3 chain: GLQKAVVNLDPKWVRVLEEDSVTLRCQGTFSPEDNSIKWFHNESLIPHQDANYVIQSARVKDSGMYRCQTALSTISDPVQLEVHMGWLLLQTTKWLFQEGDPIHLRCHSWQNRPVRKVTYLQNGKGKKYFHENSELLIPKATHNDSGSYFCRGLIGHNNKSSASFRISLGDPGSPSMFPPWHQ

T4: human FcγRIIa (131R), His- and GST-tagged (human, UniProt P12318 34-217)
T4 construct: Expressed in HEK293T cells, purified by nickel chromatography; also called R131 FcγRIIa; not shown: 6xHis and GST tags of the pTT5 vector
T4 sequence (looked up): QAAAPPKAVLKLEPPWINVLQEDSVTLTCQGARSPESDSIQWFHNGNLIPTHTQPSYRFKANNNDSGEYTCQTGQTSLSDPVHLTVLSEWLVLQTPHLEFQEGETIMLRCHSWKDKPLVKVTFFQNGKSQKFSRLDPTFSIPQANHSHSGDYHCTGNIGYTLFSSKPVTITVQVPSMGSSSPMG

T5: human FcγRIIa (131H), His- and GST-tagged (human, UniProt P12318 34-217)
T5 construct: also called H131 FcγRIIa; HIIa; not shown: 6xHis and GST tags of the pTT5 vector
T5 sequence (looked up): T4 sequence (looked up) with R134H

T6: human FcγRIIb receptor protein (R&D Systems) (human, UniProt P31994 46-217)
T6 construct: Bought protein injected over captured antibody in Biacore; also called CD32b
T6 sequence (looked up): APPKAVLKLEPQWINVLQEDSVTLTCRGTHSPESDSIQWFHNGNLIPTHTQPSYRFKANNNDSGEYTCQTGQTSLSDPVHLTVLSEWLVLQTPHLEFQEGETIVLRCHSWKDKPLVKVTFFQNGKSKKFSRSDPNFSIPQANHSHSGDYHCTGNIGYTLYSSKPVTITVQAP

B1: A327N (antibody, human IgG1, kappa)
heavy: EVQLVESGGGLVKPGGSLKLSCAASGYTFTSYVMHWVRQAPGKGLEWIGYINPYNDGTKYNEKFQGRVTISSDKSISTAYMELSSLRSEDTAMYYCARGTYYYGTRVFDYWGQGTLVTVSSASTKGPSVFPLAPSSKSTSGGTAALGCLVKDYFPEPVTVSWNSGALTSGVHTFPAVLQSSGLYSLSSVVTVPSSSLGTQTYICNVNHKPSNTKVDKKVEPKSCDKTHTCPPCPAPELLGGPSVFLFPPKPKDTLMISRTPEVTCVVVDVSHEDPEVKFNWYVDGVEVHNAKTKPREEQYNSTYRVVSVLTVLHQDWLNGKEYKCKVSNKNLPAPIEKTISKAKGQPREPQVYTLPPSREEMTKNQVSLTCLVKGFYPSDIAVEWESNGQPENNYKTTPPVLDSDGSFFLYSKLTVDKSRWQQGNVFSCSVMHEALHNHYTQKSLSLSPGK
light: DIVMTQSPATLSLSPGERATLSCRSSKSLQNVNGNTYLYWFQQKPGQSPQLLIYRMSNLNSGVPDRFSGSGSGTEFTLTISSLEPEDFAVYYCMQHLEYPITFGAGTKLEIKRTVAAPSVFIFPPSDEQLKSGTASVVCLLNNFYPREAKVQWKVDNALQSGNSQESVTEQDSKDSTYSLSSTLTLSKADYEKHKVYACEVTHQGLSSPVTKSFNRGEC
notes: HuAM4G7 anti-CD19 IgG1 (m1) with this Fc substitution, EU index; copies: 2 + 2
B2: L235A (antibody, human IgG1, kappa)
heavy: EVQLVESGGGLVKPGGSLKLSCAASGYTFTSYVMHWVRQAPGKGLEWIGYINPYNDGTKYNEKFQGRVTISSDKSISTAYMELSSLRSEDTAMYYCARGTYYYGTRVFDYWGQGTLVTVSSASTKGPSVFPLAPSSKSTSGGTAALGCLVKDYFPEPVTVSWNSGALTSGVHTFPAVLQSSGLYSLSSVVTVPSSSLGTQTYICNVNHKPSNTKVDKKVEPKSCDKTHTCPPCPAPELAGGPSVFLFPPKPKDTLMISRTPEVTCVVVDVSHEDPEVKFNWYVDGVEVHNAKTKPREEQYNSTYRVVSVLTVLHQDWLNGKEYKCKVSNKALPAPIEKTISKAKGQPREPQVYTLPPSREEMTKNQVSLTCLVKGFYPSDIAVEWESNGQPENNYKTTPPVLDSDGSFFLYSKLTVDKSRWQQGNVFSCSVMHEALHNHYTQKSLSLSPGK
light: B1 light
notes: as for B1
B3: V266M (antibody, human IgG1, kappa)
heavy: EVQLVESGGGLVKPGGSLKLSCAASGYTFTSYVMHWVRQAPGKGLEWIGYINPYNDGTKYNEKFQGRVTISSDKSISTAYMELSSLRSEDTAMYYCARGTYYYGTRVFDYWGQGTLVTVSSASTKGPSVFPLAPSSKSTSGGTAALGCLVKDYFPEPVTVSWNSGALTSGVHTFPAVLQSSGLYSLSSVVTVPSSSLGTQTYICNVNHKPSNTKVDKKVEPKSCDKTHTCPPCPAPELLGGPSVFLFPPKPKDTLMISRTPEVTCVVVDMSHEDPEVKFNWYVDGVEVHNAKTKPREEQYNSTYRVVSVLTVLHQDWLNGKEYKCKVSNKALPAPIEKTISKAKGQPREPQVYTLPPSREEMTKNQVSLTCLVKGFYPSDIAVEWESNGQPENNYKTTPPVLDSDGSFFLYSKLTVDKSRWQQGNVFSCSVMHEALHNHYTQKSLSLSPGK
light: B1 light
notes: as for B1
B4: anti-CD19 antibody HuAM4G7 IgG1 S267G (antibody)
heavy: not shown
light: B1 light
notes: Positions in EU numbering; copies: 2 + 2
B5: A327Q (antibody, human IgG1, kappa)
heavy: not shown
light: B1 light
notes: as for B1
B6: L234N (antibody, human IgG1, kappa)
heavy: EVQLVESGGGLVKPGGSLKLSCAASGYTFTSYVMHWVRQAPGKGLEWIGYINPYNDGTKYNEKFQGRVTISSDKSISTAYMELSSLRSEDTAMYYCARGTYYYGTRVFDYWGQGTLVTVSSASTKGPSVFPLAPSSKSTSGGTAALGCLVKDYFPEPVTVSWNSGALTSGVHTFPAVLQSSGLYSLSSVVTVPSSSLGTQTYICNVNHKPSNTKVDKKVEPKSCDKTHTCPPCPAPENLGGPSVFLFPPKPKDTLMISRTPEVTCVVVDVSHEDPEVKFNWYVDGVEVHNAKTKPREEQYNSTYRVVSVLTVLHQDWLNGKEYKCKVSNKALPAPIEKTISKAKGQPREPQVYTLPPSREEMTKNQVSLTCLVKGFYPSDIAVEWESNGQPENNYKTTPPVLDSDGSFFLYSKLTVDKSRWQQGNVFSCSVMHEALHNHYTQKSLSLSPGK
light: B1 light
notes: as for B1
B7: L235E (antibody, human IgG1, kappa)
heavy: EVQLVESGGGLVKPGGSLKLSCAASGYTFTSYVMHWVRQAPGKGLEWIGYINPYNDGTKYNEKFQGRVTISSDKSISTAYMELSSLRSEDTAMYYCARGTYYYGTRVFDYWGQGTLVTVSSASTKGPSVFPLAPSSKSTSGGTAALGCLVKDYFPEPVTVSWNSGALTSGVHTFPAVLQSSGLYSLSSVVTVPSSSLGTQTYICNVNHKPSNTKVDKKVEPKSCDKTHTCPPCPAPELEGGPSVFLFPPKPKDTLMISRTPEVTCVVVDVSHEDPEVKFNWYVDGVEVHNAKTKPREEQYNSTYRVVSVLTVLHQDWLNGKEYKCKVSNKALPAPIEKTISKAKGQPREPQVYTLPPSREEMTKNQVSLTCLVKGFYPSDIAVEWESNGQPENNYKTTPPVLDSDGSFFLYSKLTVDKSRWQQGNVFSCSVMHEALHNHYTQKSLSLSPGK
light: B1 light
notes: as for B1
B8: L235N (antibody, human IgG1, kappa)
heavy: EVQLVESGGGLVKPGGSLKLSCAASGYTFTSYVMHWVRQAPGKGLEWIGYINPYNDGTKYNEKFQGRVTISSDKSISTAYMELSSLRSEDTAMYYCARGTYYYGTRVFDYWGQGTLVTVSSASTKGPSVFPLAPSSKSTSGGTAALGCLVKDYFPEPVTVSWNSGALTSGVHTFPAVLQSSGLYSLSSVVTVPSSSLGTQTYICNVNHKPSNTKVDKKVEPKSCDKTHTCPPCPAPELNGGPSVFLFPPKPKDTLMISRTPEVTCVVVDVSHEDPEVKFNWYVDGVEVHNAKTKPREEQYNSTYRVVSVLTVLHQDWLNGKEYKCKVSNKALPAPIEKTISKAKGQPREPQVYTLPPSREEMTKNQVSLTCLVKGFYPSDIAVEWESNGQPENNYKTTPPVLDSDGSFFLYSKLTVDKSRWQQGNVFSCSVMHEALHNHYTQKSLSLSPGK
light: B1 light
notes: as for B1
B9: S298D (antibody, human IgG1, kappa)
heavy: not shown
light: B1 light
notes: as for B1
B10: S298E (antibody, human IgG1, kappa)
heavy: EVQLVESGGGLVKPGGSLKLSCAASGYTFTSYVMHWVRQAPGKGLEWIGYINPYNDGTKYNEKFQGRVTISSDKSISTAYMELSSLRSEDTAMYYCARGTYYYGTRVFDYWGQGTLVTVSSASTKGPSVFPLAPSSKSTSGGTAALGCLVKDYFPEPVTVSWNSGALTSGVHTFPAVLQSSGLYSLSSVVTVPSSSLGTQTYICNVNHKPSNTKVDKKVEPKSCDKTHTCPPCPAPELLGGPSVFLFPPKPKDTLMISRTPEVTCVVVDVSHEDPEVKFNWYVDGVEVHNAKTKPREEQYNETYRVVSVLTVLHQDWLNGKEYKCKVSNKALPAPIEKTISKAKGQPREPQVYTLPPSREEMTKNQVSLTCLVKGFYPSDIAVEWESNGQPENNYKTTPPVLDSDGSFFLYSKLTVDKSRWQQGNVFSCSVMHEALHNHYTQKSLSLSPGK
light: B1 light
notes: as for B1
B11: L234F (antibody, human IgG1, kappa)
heavy: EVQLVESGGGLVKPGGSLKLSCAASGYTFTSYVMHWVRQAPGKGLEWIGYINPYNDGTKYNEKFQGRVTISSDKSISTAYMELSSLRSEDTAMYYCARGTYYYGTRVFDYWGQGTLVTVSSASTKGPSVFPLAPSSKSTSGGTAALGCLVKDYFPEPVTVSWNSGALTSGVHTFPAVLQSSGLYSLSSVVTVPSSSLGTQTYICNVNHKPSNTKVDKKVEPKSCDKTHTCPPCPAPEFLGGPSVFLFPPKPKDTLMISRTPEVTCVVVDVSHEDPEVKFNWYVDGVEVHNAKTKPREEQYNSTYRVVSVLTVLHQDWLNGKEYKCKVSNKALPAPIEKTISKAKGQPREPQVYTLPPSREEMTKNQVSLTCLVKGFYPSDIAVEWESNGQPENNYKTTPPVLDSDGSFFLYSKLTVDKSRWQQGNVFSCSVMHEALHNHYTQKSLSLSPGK
light: B1 light
notes: as for B1
B12: L235F/S267E (antibody, human IgG1, kappa)
heavy: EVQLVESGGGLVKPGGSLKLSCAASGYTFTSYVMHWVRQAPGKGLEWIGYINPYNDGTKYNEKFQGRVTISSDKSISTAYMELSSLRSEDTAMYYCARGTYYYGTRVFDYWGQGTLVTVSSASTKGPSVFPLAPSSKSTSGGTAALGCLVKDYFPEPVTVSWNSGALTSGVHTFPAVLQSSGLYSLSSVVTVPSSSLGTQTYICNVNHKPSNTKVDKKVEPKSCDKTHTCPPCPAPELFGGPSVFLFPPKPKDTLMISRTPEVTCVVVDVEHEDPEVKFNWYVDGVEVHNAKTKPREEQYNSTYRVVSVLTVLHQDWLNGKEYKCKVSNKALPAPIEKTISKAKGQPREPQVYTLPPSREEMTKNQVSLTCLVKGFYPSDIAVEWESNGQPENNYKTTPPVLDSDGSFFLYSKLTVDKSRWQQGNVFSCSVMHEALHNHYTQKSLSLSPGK
light: B1 light
notes: HuAM4G7 anti-CD19 IgG1 (m1) with these Fc substitutions, EU index; copies: 2 + 2
B13: L234D/S267E (antibody, human IgG1, kappa)
heavy: not shown
light: B1 light
notes: as for B12

biological target: T1, cynoFcγRIIb; test: SPR, off-rate
Protocol: (§1) Variants were screened for receptor affinity using Biacore™ technology, also referred to as Biacore herein, a surface plasmon resonance (SPR) based technology for studying biomolecular interactions in real time. SPR measurements were performed using a Biacore 3000 instrument (Biacore, Piscataway, N.J.). A protein A/G (Pierce Biotechnology) CM5 biosensor chip (Biacore) was generated using a standard primary amine coupling protocol. All measurements were performed using HBS-EP buffer (10 mM HEPES pH 7.4, 0.15 M NaCl, 3 mM EDTA, 0.005% vol/vol surfactant P20, Biacore). Antibodies at 20 nM or 50 nM in HBS-EP buffer were immobilized on the protein A/G surface and FcγRs were injected. After each cycle, the surface was regenerated by injecting glycine buffer (10 mM, pH 1.5). Data were processed by zeroing time and response before the injection of FcγR and by subtracting appropriate nonspecific signals (response of reference channel and injection of running buffer). Kinetic analyses were performed by global fitting of binding data with a 1:1 Langmuir binding model using BIAevaluation software (Biacore).
(§2) Variant antibodies were tested for their affinity to mouse or cynologous monkey FcγRs using Biacore SPR as described above. Specifically, antibodies were first immobilized on a protein A/G chip to high density, and then followed by injections of the extracellular domain of the mouse or cynologous monkey FcγR of interest. Both association and dissociation phases were tracked in real time using the Biacore technology.
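For Fold vs WT IgG1 (off-rate) in this document: fold improvement over WT IgG1 so higher means slower dissociation than WT.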

B1: no binding.
B2: no binding.
B3: no binding.
B4: no binding.
B5: no binding.
B6: no binding.
B7: no binding.
B8: no binding.
B9: no binding.
B10: no binding.

biological target: T2, mFcγRIIb; test: SPR, off-rate
Protocol: as §1, §2

B11: no binding.
B2: no binding.
B12: no binding.
B4: no binding.
B5: no binding.
B6: no binding.
B7: no binding.
B8: no binding.
B9: no binding.
B10: no binding.

Biological target: T3, mFcγRIV
Test: SPR, off-rate
Protocol: as §1, §2

B13: no binding.

biological target: T1, cynoFcγRIIb; test: SPR

First: B13
Second: B11
The “Fold vs WT IgG1 (off-rate)” value of the first is lower: 0.495 fold for the first, 0.936 fold for the second.

For B12, the “Fold vs WT IgG1 (off-rate)” value was 1.39 fold.

biological target: T2, mFcγRIIb; test: SPR

Going from B1 to B13, the “Fold vs WT IgG1 (off-rate)” value rises from 0.643 fold to 1.04 fold.

For B3, the “Fold vs WT IgG1 (off-rate)” value was 2.04 fold.

Biological target: T3, mFcγRIV
Test: SPR

Compared with B1, B11 is lower in “Fold vs WT IgG1 (off-rate)” value: 1.16 fold for the first, 0.144 fold for the second.

First: B2
Second: B12
The “Fold vs WT IgG1 (off-rate)” value of the first is lower: 0.496 fold for the first, 0.515 fold for the second.

Compared with B5, B6 is lower in “Fold vs WT IgG1 (off-rate)” value: 0.361 fold for the first, 0.2 fold for the second.

Going from B7 to B8, the “Fold vs WT IgG1 (off-rate)” value falls from 0.857 fold to 0.241 fold.

Going from B9 to B10, the “Fold vs WT IgG1 (off-rate)” value falls from 0.618 fold to 0.136 fold.

biological target: T7, cynoFcγRIIIa (Macaca fascicularis, UniProt Q8SPW2); test: SPR
T7 construct: extracellular region, C-terminal His- and GST-tag; also called cynomolgus monkey FcγRIIIa
T7 sequence (Q8SPW2 17-208): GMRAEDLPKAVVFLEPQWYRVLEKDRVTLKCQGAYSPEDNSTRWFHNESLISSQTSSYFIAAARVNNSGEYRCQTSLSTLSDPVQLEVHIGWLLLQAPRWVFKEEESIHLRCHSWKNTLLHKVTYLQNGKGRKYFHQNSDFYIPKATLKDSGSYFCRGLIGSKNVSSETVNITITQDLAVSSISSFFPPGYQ

Compared with B1, B13 is lower in “Fold vs WT IgG1 (off-rate)” value: 0.313 fold for the first, 0.116 fold for the second.

Compared with B11, B2 is lower in “Fold vs WT IgG1 (off-rate)” value: 0.561 fold for the first, 0.53 fold for the second.

First: B12
Second: B3
The “Fold vs WT IgG1 (off-rate)” value of the first is lower: 0.255 fold for the first, 0.433 fold for the second.

Compared with B5, B6 is higher in “Fold vs WT IgG1 (off-rate)” value: 0.223 fold for the first, 0.371 fold for the second.

Compared with B7, B8 is lower in “Fold vs WT IgG1 (off-rate)” value: 0.367 fold for the first, 0.351 fold for the second.

Compared with B9, B10 is lower in “Fold vs WT IgG1 (off-rate)” value: 0.309 fold for the first, 0.046 fold for the second.

biological target: T4, human FcγRIIa (131R), His- and …; test: SPR

Compared with B1, B13 is higher in “Fold vs WT IgG1” value: 0.609 fold for the first, 12.7 fold for the second.

First: B11
Second: B2
The “Fold vs WT IgG1” value of the first is higher: 0.228 fold for the first, 0.166 fold for the second.

Compared with B12, B3 is lower in “Fold vs WT IgG1” value: 32.5 fold for the first, 3.13 fold for the second.

Going from B5 to B7, the “Fold vs WT IgG1” value falls from 0.634 fold to 0.333 fold.

First: B8
Second: B9
The “Fold vs WT IgG1” value of the first is lower: 0.0356 fold for the first, 1.45 fold for the second.

Going from B1 to B13, the Kd falls from 1410 nM to 67.7 nM (21-fold). The second binds more tightly here.

B11 and B2 are within 1.5-fold of each other in Kd: 3760 nM for the first, 5180 nM for the second.

Compared with B12, B3 is 10-fold higher in Kd: 26.4 nM for the first, 274 nM for the second. The first binds more tightly here.

Compared with B4, B5 is 2.6-fold higher in Kd: 517 nM for the first, 1350 nM for the second. The first binds more tightly here.

Going from B7 to B8, the Kd rises from 2580 nM to 24100 nM (9.3-fold).

B9 was tested, and the Kd was 592 nM.

B6: no binding.
B10: no binding.

biological target: T5, human FcγRIIa (131H), His- and …; test: SPR

B1: no binding.
B11: no binding.

Going from B2 to B12, the “Fold vs WT IgG1” value rises from 0.0486 fold to 0.402 fold.

In the case of B3, the “Fold vs WT IgG1” value is reported as 1.17 fold.

Going from B2 to B12, the Kd falls from 13300 nM to 1610 nM (8.3-fold).

In the case of B3, the Kd is reported as 553 nM.

biological target: T6, human FcγRIIb receptor protein (R&D …); test: SPR

Compared with B1, B13 is higher in “Fold vs WT IgG1” value: 0.843 fold for the first, 21.7 fold for the second.

Compared with B11, B2 is lower in “Fold vs WT IgG1” value: 0.409 fold for the first, 0.351 fold for the second.

Going from B12 to B3, the “Fold vs WT IgG1” value falls from 28.4 fold to 1.91 fold.

Compared with B5, B7 is higher in “Fold vs WT IgG1” value: 0.011 fold for the first, 0.55 fold for the second.

Going from B8 to B9, the “Fold vs WT IgG1” value rises from 0.147 fold to 0.797 fold.

First: B1
Second: B13
The Kd of the first is 26-fold higher: 1740 nM for the first, 67.8 nM for the second.

B11 and B2 are within 1.5-fold of each other in Kd: 3590 nM for the first, 4180 nM for the second.

Going from B12 to B3, the Kd rises from 51.7 nM to 770 nM (15-fold).

Compared with B4, B5 is 92-fold higher in Kd: 1450 nM for the first, 134000 nM for the second.

Compared with B7, B8 is 3.7-fold higher in Kd: 2670 nM for the first, 10000 nM for the second. The first binds more tightly here.

B9 showed a Kd of 1840 nM.

B6: no binding.
B10: no binding.

biological target: T8, human FcγRIIIa (158V), His- and GST-tagged (human, UniProt P08637 17-208); test: SPR
T8 construct: also called V158 FcγRIIIa; VIIIa; not shown: 6xHis and GST tags of the pTT5 vector
T8 sequence (P08637 17-208 F176V): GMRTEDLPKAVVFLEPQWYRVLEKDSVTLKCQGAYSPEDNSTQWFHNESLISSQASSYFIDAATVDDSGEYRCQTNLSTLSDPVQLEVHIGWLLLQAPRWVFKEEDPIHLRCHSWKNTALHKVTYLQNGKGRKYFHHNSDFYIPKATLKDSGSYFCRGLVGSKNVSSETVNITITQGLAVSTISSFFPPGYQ

B1: no binding.
B11: no binding.
B12: no binding.

Compared with B13, B2 is higher in “Fold vs WT IgG1” value: 0.14 fold for the first, 0.314 fold for the second.

B3 was tested, and the “Fold vs WT IgG1” value was 0.547 fold.

Compared with B13, B2 is 2.2-fold lower in Kd: 1370 nM for the first, 609 nM for the second.

In the case of B3, the Kd is reported as 350 nM.

biological target: T9, human FcγRI receptor protein (R&D Systems) (human, UniProt P12314 16-288); test: SPR
T9 construct: also called soluble FcγRI; solFcγRI
T9 sequence (P12314 16-288 limits assumed): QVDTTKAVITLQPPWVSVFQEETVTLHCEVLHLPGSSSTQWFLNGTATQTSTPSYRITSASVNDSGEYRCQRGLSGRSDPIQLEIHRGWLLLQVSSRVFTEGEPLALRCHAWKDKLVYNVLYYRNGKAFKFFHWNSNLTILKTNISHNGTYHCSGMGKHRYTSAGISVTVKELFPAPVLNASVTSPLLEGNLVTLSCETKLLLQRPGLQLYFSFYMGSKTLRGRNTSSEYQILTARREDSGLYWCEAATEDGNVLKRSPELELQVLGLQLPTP

Going from B1 to B13, the “Fold vs WT IgG1” value rises from 0.0279 fold to 0.0286 fold.

First: B11
Second: B2
The “Fold vs WT IgG1” value of the first is higher: 0.0362 fold for the first, 0.0179 fold for the second.

Compared with B12, B3 is higher in “Fold vs WT IgG1” value: 0.0176 fold for the first, 1.25 fold for the second.

B1 and B13 are within 1.5-fold of each other in Kd: 11.8 nM for the first, 11.5 nM for the second.

First: B11
Second: B2
The Kd of the first is 2-fold lower: 9.11 nM for the first, 18.4 nM for the second. The first binds more tightly here.

Going from B12 to B3, the Kd falls from 18.7 nM to 0.264 nM (71-fold). The second binds more tightly here.

B4 gave a Kd of 0.626 nM.

Source: US20130315910A1 (Xencor, published 2013)
